“And” between values parts separate entries of the source, which are not always exact repeats. Equal entries are not always repeated.
Molecular target: AcrIIA22 (wild type, thrombin-cleaved) (Clostridial genus CAG-217 (human gut metagenome; taxonomy inferred by the paper))
Test: SEC

“AcrIIA22 (wild type, thrombin-cleaved) (natural protein)” was tested, and the stoichiometry N was 4 and 5.

From paper doi:10.1101/2020.09.28.317578
